Assay [1] addresses OVA (aa257-264) peptide/H-2Kb complex, soluble (HRP tetramer or biotinylated complex on a streptavidin chip) (mouse) (UniProt P01901). The assay is described as follows: SPR (BIAcore 2000), biotinylated pMHCI on streptavidin chip, apparent KD.
Assay [2] shares this target. The assay is described as follows: SPR (BIAcore 2000), biotinylated pMHCI on streptavidin chip. A general note: In SPR one partner is held on a chip, and binding of the other changes the refractive index at the surface.
The target of assay [3] is IL-15Rβγc receptors on 32Dβ cells (hIL-15Rβ and murine γC chains) (human; mouse) (UniProt P14784). Nature of the assay: cell-based or functional assay.
The target in assay [4] is T1, IL-15Rβγc receptors on 32Dβ cells (hIL-15Rβ and murine γC chains) (human; mouse, UniProt P14784 27-551; P34902 23-369).
T1 sequence (looked up) 1: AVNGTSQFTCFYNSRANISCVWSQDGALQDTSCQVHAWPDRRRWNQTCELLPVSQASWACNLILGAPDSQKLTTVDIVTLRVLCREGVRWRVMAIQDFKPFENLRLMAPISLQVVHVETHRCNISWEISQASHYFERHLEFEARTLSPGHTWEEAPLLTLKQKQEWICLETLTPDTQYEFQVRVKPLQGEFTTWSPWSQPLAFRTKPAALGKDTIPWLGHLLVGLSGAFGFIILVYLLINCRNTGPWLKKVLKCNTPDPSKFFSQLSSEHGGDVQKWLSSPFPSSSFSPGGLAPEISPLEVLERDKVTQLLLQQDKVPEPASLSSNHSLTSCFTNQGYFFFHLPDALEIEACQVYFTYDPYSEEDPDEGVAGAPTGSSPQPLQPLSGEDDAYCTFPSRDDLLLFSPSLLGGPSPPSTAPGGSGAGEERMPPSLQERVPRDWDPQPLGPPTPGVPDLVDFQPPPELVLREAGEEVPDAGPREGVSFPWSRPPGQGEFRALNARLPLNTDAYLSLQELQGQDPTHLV
T1 sequence (looked up) 2: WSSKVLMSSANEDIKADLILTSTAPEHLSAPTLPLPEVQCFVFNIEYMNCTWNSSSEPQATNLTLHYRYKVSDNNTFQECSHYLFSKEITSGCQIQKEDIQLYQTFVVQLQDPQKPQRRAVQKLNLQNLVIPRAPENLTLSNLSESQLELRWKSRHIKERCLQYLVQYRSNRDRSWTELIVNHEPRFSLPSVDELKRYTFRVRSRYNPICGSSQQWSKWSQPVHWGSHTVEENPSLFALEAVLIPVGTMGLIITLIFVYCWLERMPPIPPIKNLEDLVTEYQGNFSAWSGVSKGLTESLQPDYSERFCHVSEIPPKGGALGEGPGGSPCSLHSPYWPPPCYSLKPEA
Nature of the assay: cell-based or functional assay.

OVA (aa257-264) peptide/H-2Kb complex, soluble (HRP tetramer or biotinylated complex on a streptavidin chip) (mouse), sequence (P01901 22-305, one chain of several): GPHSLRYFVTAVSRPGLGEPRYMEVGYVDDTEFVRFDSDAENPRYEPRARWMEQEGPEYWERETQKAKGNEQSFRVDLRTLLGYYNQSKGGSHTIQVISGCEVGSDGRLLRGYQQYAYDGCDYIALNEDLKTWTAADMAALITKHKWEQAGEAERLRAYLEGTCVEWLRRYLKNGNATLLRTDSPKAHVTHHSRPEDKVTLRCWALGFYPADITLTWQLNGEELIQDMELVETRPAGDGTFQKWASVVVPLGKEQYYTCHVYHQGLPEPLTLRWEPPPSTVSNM

Regarding “OT1scTCR dimer (OT1scTCR/hIL-15:OT1scTCR/hIL-15RαSu/birA complex) (from UniProt P40933 49-162)”, in assay [1], the Kd stood at 30000 nM. As to “OT1scTCR/scCD8 heterodimer (OT1scTCR/hIL-15:scCD8/hIL-15RαSu/birA complex) (from UniProt P40933 49-162; P01731 28-196; P10300 22-175)”, the Kd in assay [2] turned out to be 2600 nM. In turn, “c264scTCR dimer (c264scTCR/hIL-15:c264scTCR/hIL-15RαSu/birA complex) (from UniProt P40933 49-162)” registered an EC50, 32Dβ cell proliferation in assay [3] of 0.3 nM.

The molecule “c264scTCR/hIL-15 fusion protein (from UniProt P40933 49-162)” registered an EC50, 32Dβ cell proliferation in assay [3] of 0.3 nM.

B1: IL-15N72D:IL-15RαSu/Fc complex (Alt-803), co-expressed and purified (Fc fusion)
chain 1: PEAAGG
chain 2: PELLGG
For B1, in assay [4], the “EC50, 32Dβ cell proliferation” value came to 0.0156 nM.

B2: in vitro assembled IL-15N72D:IL-15RαSu/Fc complex (IL-15N72D:IL-15RαSu/Fc IVA) (Fc fusion)
chain 1: PEAAGG
chain 2: PELLGG
Take B2: the “EC50, 32Dβ cell proliferation” value in assay [4] was 0.0158 nM.

Values taken from patent US20190023766A1 (published 2019).
